Earlier results in US20160258855A1, “Methods and Apparatus to Determine Diffusion Properties of Porous Structures for Drug Delivery” (ForSight Vision4, Inc., priority 2010, published 2016).
Read-outs that look alike come from different tables or passages of the source.

Columns and labels:
[1] = rabbit eye, intravitreal, cited from earlier work
[2] = human eye, intravitreal, cited from earlier work
[3] = monkey eye, intravitreal, cited from earlier work

For ranibizumab [Lucentis], the half-life in vitreous [1] is given as “two to four”, the half-life in vitreous ([1]; listed as ranibizumab) is given as “approximately 3 days” and the half-life in vitreous [2] is given as “about nine”. For the same substance, the half-life in vitreous ([2]; listed as ranibizumab) was roughly 220 h, the half-life in vitreous [3] was “two to four” and the half-life in vitreous ([3]; listed as ranibizumab) was “approximately 3 days”.
